Measurements: the supplement of paper PMC9170038

Tests used:
MS2 coat protein [1] = assay: apparent KD of MS2 coat protein, switch OFF state (with FMN for OFF switches, without FMN for ON switches); designed switch direction (-1 OFF switch, 1 ON switch): -1; higher = weaker reporter binding; conditions: FMN input: 0 or 200 uM; Eterna round: R93 (includes R88 designs)
Method in brief: (§1)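 Designed RNA switches were made by on-chip transcription from Illumina sequencing clusters and then titrated with SNAP-549-labelled MS2 coat protein. Twofold steps ran from 0.7 or 1.5 nM to 3 µM, each lasting 0.8–1.5 h early and 10–20 min late, in 100 mM Tris-HCl pH 7.5, 80 mM KCl, 4 mM MgCl2, without or with constant ligand. Apparent KD is the per-design median of normalised cluster binding-curve fits.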

MS2 coat protein [2] = assay: apparent KD of MS2 coat protein, switch ON state; designed switch direction (-1 OFF switch, 1 ON switch): -1; higher = weaker reporter binding; conditions: FMN input: 0 or 200 uM; Eterna round: R93 (includes R88 designs)
Method in brief: as §1

MS2 coat protein [3] = assay: apparent KD of MS2 coat protein; designed switch direction (-1 OFF switch, 1 ON switch): 1; higher = weaker reporter binding
Method in brief: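 Transcription of designed RNA switches on Illumina chips was done by stalled E. coli RNA polymerase. SNAP-549-labelled MS2 coat protein was then titrated in doubling steps from 0.7 or 1.5 nM to 3 µM, with steps of 0.8–1.5 h at the lowest and 10–20 min at the highest concentration. The per-design median over clusters of curve-fitted normalised fluorescence is reported as apparent KD.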

[4] = input ligand: microRNA oligo, concentration not stated
[5] = Eterna round: R95, input ligand: FMN 200 uM
[6] = Eterna round: R95, input ligand: microRNA oligo, concentration not stated
[7] = Eterna round: R95, input ligand: none

AACAAGUGAGGAUAUCGGAAAAGAAAAUAAGAUACACAAAACGAGAAGGCACAUGAGGAUCACCCAUGUAAAUA [JR_Exc004_Sub012]
apparent KD of MS2 coat protein (MS2 coat protein [1]): 41.5 nM
apparent KD of MS2 coat protein (MS2 coat protein [2]): 35.9 nM

AAAAAGUGAGGAUAUACGCUGUGGAGUAGACACAACCAGUCGUAGAAGGCACAUGAGGAUCACCCAUGUCCAAA [EX4 Malc#19]
apparent KD of MS2 coat protein (MS2 coat protein [1]): 49.6 nM
apparent KD of MS2 coat protein (MS2 coat protein [2]): 22 nM

AAAAGCACAGGAUAUACAUAAUUAUGACGAAAGUCAUAAAAACAUGAGGAUCACCCAUGUAGAAGGGUGCAAAA [Mod of Meechl's... 64% 1]
apparent KD of MS2 coat protein (MS2 coat protein [1]): 37.8 nM
apparent KD of MS2 coat protein (MS2 coat protein [2]): 118 nM

CUUAUGUCAGGAUAUCAGUAGUAAAAAAAUAAAAUUACUACUGAGAAGGGACAUGAGGAUCACCCAUGUCAAAA [EX4 365: Super Stable 65]
apparent KD of MS2 coat protein (MS2 coat protein [1]): 97.2 nM
apparent KD of MS2 coat protein (MS2 coat protein [2]): 164 nM

AAAAAUGGAGGAUAUACAUGAGGAUCACCCAUGUGUAACAAAACAAAACACAAAAAAAGUAGAAGGCCAAAAAA [Gilly Gone Silly 5 - Jieux - Exclusion 3]
apparent KD of MS2 coat protein (MS2 coat protein [1]): 20.4 nM
apparent KD of MS2 coat protein (MS2 coat protein [2]): 19.2 nM

GAAAAGUCAGGAUAUGUGGAAAAAAUAAAAAAAAUAAAAACACAGAAGGGACAUGAGGAUCACCCAUGUUAAAG [Mat - Exclusion 4 - Mayanna - D138]
apparent KD of MS2 coat protein (MS2 coat protein [1]): 32.5 nM
apparent KD of MS2 coat protein (MS2 coat protein [2]): 41.5 nM

UAAAAACAUGAGGAUCACCCAUGUGAGGAUAUGUGAAAAAAAAAAAAAAAAAAAACAAGCAGAAGGCACAAAAA [JR_Exc001_Sub020]
apparent KD of MS2 coat protein (MS2 coat protein [1]): 584 nM
apparent KD of MS2 coat protein (MS2 coat protein [2]): 67.6 nM

AAGAAGUCAGGAUAUACAUGAGGAUCACCCAUGUAAAAGAAAGAAGGGAAAGAGAAAAGUAGAAGGGACAAGAA [Usermaatre-setpenamun Takelot III]
apparent KD of MS2 coat protein (MS2 coat protein [1]): 19.9 nM
apparent KD of MS2 coat protein (MS2 coat protein [2]): 31.9 nM

AGCAUGUGAGGAUAUGUGACCCUCGUCCUAAGGAUGAGGAAAUAGAAGGCACAUGAGGAUCACCCAUGUGAUGA [Eratusar]
apparent KD of MS2 coat protein (MS2 coat protein [1]): 293 nM
apparent KD of MS2 coat protein (MS2 coat protein [2]): 65.4 nM

AGCUAGUGAGGAUAUACGAACACGUAACAGGACUGUAAGGGACAUGAGGAUCACCCAUGUAGAAGGCACUAGCA [Diamond 61]
apparent KD of MS2 coat protein (MS2 coat protein [1]): 77 nM
apparent KD of MS2 coat protein (MS2 coat protein [2]): 33.9 nM

AAAGGAUGAUUAUACAUGAGGAUCACCCAUGUAAGUUAUACUAAGGAUAUGUGACUUAAUAGUUUACAGAAGGUAGGUUCAUGA [AK SSNG3-V2-2] (Eterna round: R96, puzzle: Same State NG 3)
apparent KD of MS2 coat protein (MS2 coat protein [3]; input ligand: FMN 200 uM): 43.8 nM
apparent KD of MS2 coat protein (MS2 coat protein [3]; [4]): 69.3 nM
apparent KD of MS2 coat protein (MS2 coat protein [3]; input ligand: none): 59.9 nM

GUUACAUGAGGAUCACCCAUGUAUGUGUGGGAGUAAGUGUCUUAGGAUAUCUAUUAUUUAAGUUAAGAGAAGGAAGAUUGUUGU [JMF's solution 23] (Eterna round: R96, puzzle: Same State NG 3)
apparent KD of MS2 coat protein (MS2 coat protein [3]; input ligand: FMN 200 uM): 121 nM
apparent KD of MS2 coat protein (MS2 coat protein [3]; [4]): 94.7 nM
apparent KD of MS2 coat protein (MS2 coat protein [3]; input ligand: none): 114 nM

GUAGCAUACCGAGGAUAUUCAUAACAUGAGGAUCACCCAUGUUAGGCCAGCAUUAGCUGGCCUUGGGAGAAGGCGGAAUGCUAC [Xeonanis - 20 Mod52] (Eterna round: R96, puzzle: Same State NG 2)
apparent KD of MS2 coat protein (MS2 coat protein [3]; input ligand: FMN 200 uM): 17.5 nM
apparent KD of MS2 coat protein (MS2 coat protein [3]; [4]): 14.5 nM
apparent KD of MS2 coat protein (MS2 coat protein [3]; input ligand: none): 22.2 nM

UGAAUACAUGAGGAUCACCCAUGUCAACGUAGUCGAGGAUAUGGGCAGCCGUGAGGCGUACUAGAAGGCGAAGAGG [JL-ss1-3.07 ViennaUCT mod] (puzzle: Same State 1)
apparent KD of MS2 coat protein (MS2 coat protein [3]; [5]): 131 nM
apparent KD of MS2 coat protein (MS2 coat protein [3]; [6]): 89.9 nM
apparent KD of MS2 coat protein (MS2 coat protein [3]; [7]): 175 nM

AACAAUCUAUCUGAGGAUAUCAUGAAAAAAACAUGAGGAUCACCCAUGUGCAGGAAAACUGCAUAUGAGAAGGCAGAUAGAUUGA [SS2: 1101] (Eterna round: R96, puzzle: Same State 2)
apparent KD of MS2 coat protein (MS2 coat protein [3]; [4]): 490 nM

UGUUUGUUGUGAGGAUAUACGUACACCCUACAUGAGGAUCACCCAUGUUGUUCCCUUGAUUGUUGGUAGAAGGCACUUGGUUAU [JR_SSNG2_Sub049] (Eterna round: R96, puzzle: Same State NG 2)
apparent KD of MS2 coat protein (MS2 coat protein [3]; input ligand: FMN 200 uM): 216 nM
apparent KD of MS2 coat protein (MS2 coat protein [3]; [4]): 122 nM
apparent KD of MS2 coat protein (MS2 coat protein [3]; input ligand: none): 118 nM

GUAAUACAUGAGGAUCACCCAUGUCAAUGUAGUCGAGGAUAUGGGUAGCUAUGUGGCUUACUAGAAGGCGACGAGC [Same State 1 - Mod of Vinnie Teenbexe v.4] (puzzle: Same State 1)
apparent KD of MS2 coat protein (MS2 coat protein [3]; [5]): 90.3 nM
apparent KD of MS2 coat protein (MS2 coat protein [3]; [6]): 157 nM
apparent KD of MS2 coat protein (MS2 coat protein [3]; [7]): 251 nM

AGGCAAGCUUUUUGCUGGUAUGAAGGAGAACAUGAGGAUCACCCAUGUAUUAGAGGUGUAGAGGAUUUGAGAAAGAA [JR_SHM208A_Sub003] (puzzle: Sensor for hsa-mir-208a)
apparent KD of MS2 coat protein (MS2 coat protein [3]; [5]): 96.8 nM
apparent KD of MS2 coat protein (MS2 coat protein [3]; [6]): 91.8 nM
apparent KD of MS2 coat protein (MS2 coat protein [3]; [7]): 134 nM
